The results in this text go back to patent publication US12258605B2, “Alkane oxidation by modified hydroxylases” (The California Institute of Technology, priority 2005, dated 2025).

Changes are numbered by the printed parent chain. Numbers in names are those of the source. Entries after “also recorded” stand apart in the source; their conditions may differ.

Assay [1] is described as follows: Octane hydroxylation (rate, ttn, regio- and enantioselectivity). The following applies: for Octane ttn / Octane Rate: 1% ethanol; for Octane Rate: initial rate of octanol formation over 1 min; for Octane % 2-octanol: regioselectivity. The assay is classed as biochemical. On the procedure:
Cell lysates for high throughput screening were prepared as described previously (Peters et al., J. Am. Chem. Soc. 125:13442 (2003); incorporated by reference herein). High-throughput dimethyl ether (DME) screens were performed in 96 well plates as described previously. Improved mutants were selected based on an increased signal compared to 9-10A (for the saturation mutagenesis libraries) and 1-12G (for the recombination library). Reactions on octane and propane were analyzed by gas chromatography as described.
Rates of ethanol formation were measured over 30 min using gas chromatography (GC) coupled to an electron capture detector (ECD) and are reported as nmol ethanol/min/nmol enzyme. Errors are at most 10%. Total turnover number (ttn) was measured using GC after completion of the reaction and is reported as nmol product/nmol protein. Errors are at most 10%. Initial rates of propanol and octanol formation were measured over 1 min by GC and are reported as nmol product/min/nmol protein. Errors are at most 15%. The “ee” of 2-octanol (main product) was measured by GC; the favored enantiomer is listed in parenthesis. Wild-type P450 BM-3 primarily produces 3- and 4-octanol. The yields were not sufficient for the determination of ee for wt BM-3. Mutant 9-10A contains amino acid substitutions R47C, V78A K94I, P142S, T175I, A184V, F205C, S226R, H236Q, E252G, R255S, A290V, and L353V.
In Table 5 the product distribution is determined as ratio of a specific alcohol product to the total amount of all alcohol products (given in %). The product distribution for ketones was similar to alcohol product distribution. The numbers reported here are the (%) total of all ketones relative to total products (alcohols+ketones). The favored enantiomer is listed in parentheses.
For the data shown in Table 6 the initial NADPH consumption rates were measured over 15 seconds at 340 nm as nmol NADPH/min/nmol protein. Octane reactions contained 100 nM P450, 166 uM NADPH, and 4 mM octane in 1% ethanol and potassium phosphate buffer. […] Errors are at most 10%. Initial rates were measured by GC over 1 minute as nmol total products/min/nmol protein. Octane reactions contained 100 nM P450, 500 uM NADPH, and 4 mM octane in 1% ethanol and potassium phosphate buffer. Propane reactions contained 1 uM P450, 500 uM NADPH, and propane-saturated potassium phosphate buffer. Coupling was determined by ratio of product formation rate to NADPH consumption rate. Total turnover numbers were determined as nmol product/nmol enzyme. Octane reactions contained 10-25 nM P450, 500 uM NADPH, and 4 mM octane in 1% ethanol and potassium phosphate buffer. Propane reactions contained 10-25 nM protein, potassium phosphate buffer saturated with propane, and an NADPH regeneration system containing 100 uM NADP+, 2 U/mL isocitrate dehydrogenase, and 10 mM isocitrate.
Twenty-one single active site mutants with increased activity towards either of these substrates were isolated. Mutations that improved the activity were found at amino acid positions L75 (I, W), A78 (T, F, S), A82 (T, S, F, I, C, G, L), F87 (I, V, L), T88 (C), T260 (N, L, S) and A328 (L, F, M). The single active site mutants of 9-10A were characterized by their altered regioselectivity towards octane. Each of these mutations produces a characteristic octanol product distribution as a result of their presence altering the active site geometry above the heme cofactor. Transformations were carried out using cell lysates. The mutations were generated in variant 9-10A (with amino acid mutations R47C, V78A, K94I, P142S, T175I, A184V, F205C, S226R, H236Q, E252G, R255S, A290V, L353V). “Others” indicates over oxidation products (ketones and aldehydes) with a similar product distribution as the alcohols. “Rate” was measured as nmol octanol/nmol P450/minute. “TTN” was measured as nmol octanol/nmol P450 produced in 4 hour reaction.
Mutations are relative to variant 9-10A (described above). Wild-type has a valine at position 78. […]

A further assay in a line: Reactions on laurate. Format: biochemical. The following applies: laurate 2 mM, 5 hours, room temperature. On the procedure: Reactions on laurate. P450PMO activity on laurate was tested mixing the substrate (2 mM) with purified protein (up to 0.5 μM) in 100 mM KPi pH 8.0 buffer, and adding NADPH to final concentration of 1 mM. Reaction mixtures were incubated for 5 hours at room temperature under gentle stirring. Analysis of the hydroxylated products was carried out by derivatization with N-methyl-N-trimethylsilylheptafluorobutyramide (Aldrich) followed by GC analysis according to a published procedure. A control experiment was carried out using wild-type P450BM3.
Products from alkane reactions were identified and quantified by gas chromatography using authentic standards and calibration curves with internal standards. For the reactions with alkanes from pentane to decane, GC analyses were carried out using a Shimadzu GC-17A gas chromatograph, Agilent HP5 column (30 m×0.32 mm×0.1 μm film), 1 μL injection, FID detector, and the following separation program: 250° C. inlet, 250° C. detector, 50° C. oven for 3 min, 5° C./min gradient to 100° C., 25° C./min gradient to 230° C., and 230° C. for 3 min. […] Organic solutions were analyzed by FID-GC. […]

B1: 35-E11: P450 BM-3 variant, SEQ ID NO:7: 53-5H substitutions plus E464G and I710T (protein)
chain: TIKEMPQPKTFGELKNLPLLNTDKPVQALMKIADELGEIFKFEAPGCVTRYLSSQRLIKEACDESRFDKNLSQALKFFRDFSGDGLFTSWTHEINWKKAHNILLPSFSQQAMKGYHAMMVDIAVQLVQKWERLNADEHIEVSEDMTRLTLDTIGLCGFNYRFNSFYRDQPHPFIISMVRALDEVMNKLQRANPDDPAYDENKRQCQEDIKVMNDLVDKIIADRKARGEQSDDLLTQMLNGKDPETGEPLDDGNISYQIITFLIAGHETTSGLLSFALYFLVKNPHVLQKVVEEAARVLVDPVPSYKQVKQLKYVGMVLNEALRLWPTFPAFSLYAKEDTVLGGEYPLEKGDEVMVLIPQLHRDKTIWGDDVEEFRPERFENPSAIPQHAFKPFGNGQRACIGQQFALHEATLVLGMMLKHFDFEDHTNYELDIKETLTLKPEGFVVKAKSKKIPLGGIPSPSTGQSAKKVRKKAENAHNTPLLVLYGSNMGTAEGTARDLADIAMSKGFAPQVATLDSHAGNLPREGAVLIVTASYNGHPPDNAKQFVDWLDQASADEVKGVRYSVFGCGDKNWATTYQKVPAFIDETLAAKGAENIADRGEADASDDFEGTYEEWREHMWSDVAAYFNLDIENSEDNKSTLSLQFVDSAADMPLAKMHGAFSTNVVASKELQQPGSARSTRHLEIELPKEASYQEGDHLGVIPRNYEGTVNRVTARFGLDASQQIRLEAEEEKLAHLPLAKTVSVEELLQYVELQDPVTRTQLRAMAAKTVCPPHKVELEALLEKQAYKEQVLAKRLTMLELLEKYPACEMKFSEFIALLPSIRPRYYSISSSPRVDEKQASITVSVVSGEAWSGYGEYKGIASNYLAELQEGDTITCFISTPQSEFTLPKDPETPLIMVGPGTGVAPFRGFVQARKQLKEQGQSLGEAHLYFGCRSPHEDYLYQEELENAQSEGIITLHTAFSRMPNQPKTYVQHVMEQDGKKLIELLDQGAHFYICGDGSQMAPAVEATLMKSYADVHQVSEADARLWLQQLEEKGRYAKDVWAG
modifications: mutant P450 35-E11 protein sequence
Regarding B1, in assay [1], the Octane ttn is reported as 8000 nmol product/nmol protein, the “Octane Rate” value is 420 nmol product/min/nmol protein and the “Octane % 2-octanol” value is 89%. Besides, the Octane % ee in assay [1] (ee of 2-octanol (main product), favored enantiomer (S)) turned out to be 65%.

B2: P450PMO: P450 BM-3 variant, SEQ ID NO:125; 7-7 plus G443A and D698G; propane monooxygenase (protein)
chain: B1 chain with L52I, A74E, S82G, L188P, I366V, G443A, D698G
modifications: Mutant P450PMO protein sequence
notes: 7-7 plus G443A and D698G; propane monooxygenase
As to B2, in “Reactions on laurate”, the “hydroxylation products of laurate” value is listed as “no hydroxylation product could be detected; also recorded: no detectable amounts of hydroxylated fatty acids”.

B3: Wild-type BM-3: wild-type cytochrome P450 BM-3 from Bacillus megaterium, SEQ ID NO:1 (protein, listed as Bacillus megaterium)
chain: TIKEMPQPKTFGELKNLPLLNTDKPVQALMKIADELGEIFKFEAPGRVTRYLSSQRLIKEACDESRFDKNLSQALKFVRDFAGDGLFTSWTHEKNWKKAHNILLPSFSQQAMKGYHAMMVDIAVQLVQKWERLNADEHIEVPEDMTRLTLDTIGLCGFNYRFNSFYRDQPHPFITSMVRALDEAMNKLQRANPDDPAYDENKRQFQEDIKVMNDLVDKIIADRKASGEQSDDLLTHMLNGKDPETGEPLDDENIRYQIITFLIAGHETTSGLLSFALYFLVKNPHVLQKAAEEAARVLVDPVPSYKQVKQLKYVGMVLNEALRLWPTAPAFSLYAKEDTVLGGEYPLEKGDELMVLIPQLHRDKTIWGDDVEEFRPERFENPSAIPQHAFKPFGNGQRACIGQQFALHEATLVLGMMLKHFDFEDHTNYELDIKETLTLKPEGFVVKAKSKKIPLGGIPSPSTEQSAKKVRKKAENAHNTPLLVLYGSNMGTAEGTARDLADIAMSKGFAPQVATLDSHAGNLPREGAVLIVTASYNGHPPDNAKQFVDWLDQASADEVKGVRYSVFGCGDKNWATTYQKVPAFIDETLAAKGAENIADRGEADASDDFEGTYEEWREHMWSDVAAYFNLDIENSEDNKSTLSLQFVDSAADMPLAKMHGAFSTNVVASKELQQPGSARSTRHLEIELPKEASYQEGDHLGVIPRNYEGIVNRVTARFGLDASQQIRLEAEEEKLAHLPLAKTVSVEELLQYVELQDPVTRTQLRAMAAKTVCPPHKVELEALLEKQAYKEQVLAKRLTMLELLEKYPACEMKFSEFIALLPSIRPRYYSISSSPRVDEKQASITVSVVSGEAWSGYGEYKGIASNYLAELQEGDTITCFISTPQSEFTLPKDPETPLIMVGPGTGVAPFRGFVQARKQLKEQGQSLGEAHLYFGCRSPHEDYLYQEELENAQSEGIITLHTAFSRMPNQPKTYVQHVMEQDGKKLIELLDQGAHFYICGDGSQMAPAVEATLMKSYADVHQVSEADARLWLQQLEEKGRYAKDVWAG
With B3, the “hydroxylation products of laurate” value in “Reactions on laurate” is on record as “multiple hydroxylation products were detected”. In addition, in assay [1], the “rate of octane hydroxylation” value was 30 min⁻¹, the Octane ttn amounted to 150 nmol product/nmol protein, the “Octane Rate” value is recorded as 30 nmol product/min/nmol protein and the “Octane % 2-octanol” value was 17%.
